In the supplement of paper PMC10065799, “High-throughput profiling of sequence recognition by tyrosine kinases and SH2 domains using bacterial peptide display” (eLife, 2023):

Target: SHP2-C SH2
Assay: SH2 binding enrichment of the phosphorylated peptide, bacterial display (enrichment ratio); higher = better substrate or ligand; peptides without Tyr show the background
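Further: peptide library displayed on the E. coli surface as eCPX fusions, selected cells deep-sequenced, score is each peptide's frequency after selection divided by its frequency in the input.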

SH2 binding enrichment	Sequence
1.23	FRPPYYHRNCM [HGD_Y334]
1.12	LEGKEYRMSGE [KRT3_Y511_E509K]
0.598	PLDGEYFTLQV [TP53_Y327_I332V]
0.456	DNEALYDTCFR [TUBB2B_Y208_I210T]
1.16	AALVQYYMEHH [PTPN11_Y80_E76A]
0.501	INMKEYCKKDY [NTN1_Y490_K489E]
0.847	SLEKGYELPDG [ACTC1_Y242_S241G]
0.94	RYVTRSIYNRE [HLA-DQB1_Y62_Y62S]
1.29	CENCHYPILPL [LCK_Y25_V28L]
0.349	MHRRQYELLGG [GNAS_Y391_L388R]
0.536	DYSLKYATDIP [APC_Y1183]
0.525	EIKLAYRRRPP [GRIN2B_Y1109_E1106K]
0.63	NIEPIYLNMLL [ATR_Y317_V316I]
0.589	AGIVDYNIIGW [MYH7_Y588]
0.632	VLVSQYEKLNA [AMZ2_Y26]
0.529	FSAPNCCYRCG [PPP2CA_Y265_Y265C]
0.245	RYVSRYIYNRE [HLA-DQB1_Y62_T60S]

SH2 binding enrichment	Sequence
0.981	IFSGIYFKPES [L2HGDH_Y102_H98Y_YF]
1.22	YENGEYIIRQG [PRKG1_Y247]
0.984	RLSVDCGKKSK [TUBA4A_Y161_Y161C]
0.849	KSVITYSPTTG [ITGB3BP_Y32]
1.35	CTTIHYIYMCN [TP53_Y234_N235I]
1.16	KMKGEYYRYLA [YWHAG_Y130_D129E]
0.715	LSPPVYLTNEW [NRK_Y885_I880L]
0.626	LIEQAYDNLHE [PRPF8_Y871_P874L]
0.862	FCRIMYDIFPF [INTS13_Y67_YF]
0.754	GRTNIYNNKKD [SLC26A3_Y520_K521N]
1.39	LISVSYDDWDY [GRIN2A_Y281]
0.654	ETAENYLGFTA [HSPA9_Y181_H184Y_YF]
0.672	MKKMHYVDPDH [ST3GAL5_Y99]
0.634	DASAVYLHDFQ [PLCG2_Y242]
1	DFPGIYSGYDD [POLR1C_Y33_N32I]
0.833	IVAREYYSDAD [CAMK2A_Y106_E109D]

Target: Grb2 SH2 (UniProt P62993)
Assay: as above

SH2 binding enrichment	Sequence
1.21	FRPPYYHRNCM [HGD_Y334]
0.85	LEGKEYRMSGE [KRT3_Y511_E509K]
0.688	PLDGEYFTLQV [TP53_Y327_I332V]
0.725	DNEALYDTCFR [TUBB2B_Y208_I210T]
0.991	AALVQYYMEHH [PTPN11_Y80_E76A]
0.723	INMKEYCKKDY [NTN1_Y490_K489E]
0.832	SLEKGYELPDG [ACTC1_Y242_S241G]
0.802	RYVTRSIYNRE [HLA-DQB1_Y62_Y62S]
1.13	CENCHYPILPL [LCK_Y25_V28L]
0.601	MHRRQYELLGG [GNAS_Y391_L388R]
0.704	DYSLKYATDIP [APC_Y1183]
0.708	EIKLAYRRRPP [GRIN2B_Y1109_E1106K]
0.705	NIEPIYLNMLL [ATR_Y317_V316I]
0.562	AGIVDYNIIGW [MYH7_Y588]
0.915	VLVSQYEKLNA [AMZ2_Y26]
0.925	FSAPNCCYRCG [PPP2CA_Y265_Y265C]
0.659	RYVSRYIYNRE [HLA-DQB1_Y62_T60S]

SH2 binding enrichment	Sequence
1.05	IFSGIYFKPES [L2HGDH_Y102_H98Y_YF]
37.5	YENGEYIIRQG [PRKG1_Y247]
0.846	RLSVDCGKKSK [TUBA4A_Y161_Y161C]
0.91	KSVITYSPTTG [ITGB3BP_Y32]
0.894	CTTIHYIYMCN [TP53_Y234_N235I]
1.65	KMKGEYYRYLA [YWHAG_Y130_D129E]
0.959	LSPPVYLTNEW [NRK_Y885_I880L]
0.736	LIEQAYDNLHE [PRPF8_Y871_P874L]
0.93	FCRIMYDIFPF [INTS13_Y67_YF]
1.04	GRTNIYNNKKD [SLC26A3_Y520_K521N]
1.07	LISVSYDDWDY [GRIN2A_Y281]
0.703	ETAENYLGFTA [HSPA9_Y181_H184Y_YF]
0.9	MKKMHYVDPDH [ST3GAL5_Y99]
0.933	DASAVYLHDFQ [PLCG2_Y242]
0.835	DFPGIYSGYDD [POLR1C_Y33_N32I]
0.869	IVAREYYSDAD [CAMK2A_Y106_E109D]
